# Reference: patent US9605064B2, “Methods and compositions for treatment of skin disorders” (AbbVie Biotechnology Ltd, priority 2006, dated 2017)
# Marks after values point to notes of the source that are not given here.
# Key:
# [1] = tested on: patients with moderate to severe plaque psoriasis; experiment: PASI response and relapse, 12-week open-label weekly therapy then randomized eow or withdrawal; type: in vivo, human
# [2] = tested on: patients with moderate to severe chronic plaque psoriasis; experiment: Adverse events, Phase II trial with 48-week extension; conditions: for AE's→Withdrawal / Any AE / Serious AE / AE's→Withdrawal, number of patients / Any AE, number of patients / Serious AE, number of patients: 40 mg weekly
# Description: The study was a randomized, double-blind, placebo-controlled, multi-center clinical trial, wherein patients were randomized to one of three treatment groups. The three treatment groups consisted of the following: • 1. […] Inclusion criteria included a diagnosis of moderate to severe chronic plaque psoriasis≧1 year prior to entry, a psoriasis-affected body surface area (BSA)>5%, and no previous use of TNF-antagonist therapy.
# Inclusion criteria for the study included the following parameters: ≧18 years of age; moderate to severe chronic plaque psoriasis≧1 year; and affected BSA≧5%. […] Efficacy outcome measures included PASI and PGA.
# Inclusion criteria included patients being 18 years of age; having moderate to severe chronic plaque psoriasis≧1 year; and affected BSA≧5%. Exclusion criteria included prior TNF-antagonist therapy and discontinuation of other systemic psoriasis therapies. Efficacy outcome measures which were used included PASI, PGA, DLQI.
# Inclusion criteria included: • ≧18 years of age • Moderate to severe chronic plaque psoriasis 1 year • Affected BSA≧5% Exclusion criteria included: • Prior TNF-antagonist therapy • Discontinuation of other systemic psoriasis therapies Efficacy outcome was measured using PASI and DLQI responses/scores.
# [3] = Week 4, open-label 40 mg weekly, missing = non-responder
# [4] = Week 8, open-label 40 mg weekly, missing = non-responder
# [5] = Week 12, open-label 40 mg weekly, missing = non-responder
# [6] = Week 24, randomized at Week 12 to 40 mg eow, missing = non-responder
# [7] = open-label 40 mg weekly, Week 12
# [8] = Week 0-12, 40 mg weekly (N = 50)
# [9] = Week 0-60, 40 mg weekly (N = 50)
# [10] = Week 0-60, Placebo/Adalimumab 40 mg eow (N = 52)
# [11] = Week 12-60, 40 mg weekly (n = 50)
# [12] = Week 12-60, Placebo/Adalimumab 40 mg eow + Adalimumab 40 mg eow (n = 92)
# [13] = Weeks 0-12, 40 mg weekly (n = 50)
# [14] = Weeks 0-12, prior biologic use (n = 9)
# [15] = Weeks 12-60, 40 mg weekly (n = 50)
# [16] = Weeks 12-60, no prior use (n = 24)
# [17] = Weeks 12-60, prior biologic use (n = 7)
# [18] = Weeks 12-60, prior systemic use (n = 21)
substance,measurement,setting,value
"Adalimumab: a human anti-TNF mAb, described in U.S. Pat. No. 6,090,382 as D2E7 (HUMIRA, Abbott Laboratories)","PASI50 response, Patients (%)",[1]; [3],59%
same,"PASI75 response, Patients (%)",[1]; [3],26%
same,"PASI90 response, Patients (%)",[1]; [3],9%
same,"PASI50 response, Patients (%)",[1]; [4],84%
same,"PASI75 response, Patients (%)",[1]; [4],55%
same,"PASI90 response, Patients (%)",[1]; [4],30%
same,"PASI50 response, Patients (%)",[1]; [5],92%
same,"PASI75 response, Patients (%)",[1]; [5],30%
same,"PASI90 response, Patients (%)",[1]; [5],47%
same,"PASI50, Patients (%)",[1]; [6],78%
same,"PASI75, Patients (%)",[1]; [6],68** %
same,"PASI90, Patients (%)",[1]; [6],47** %
same,PASI 50 response rate,"[1]; open-label 40 mg weekly, Week 2",28%
same,PASI 50 response rate,[1]; [7],92%
same,PASI 75 response,[1]; [7],76.4%
same,PASI 90 response,[1]; [7],47.3%
same,patients who achieved ≧PASI 50 responses,"[1]; patients exposed to alefacept within the past year, Week 12",6/6
same,patients who achieved ≧PASI 50 responses,"[1]; patients exposed to efalizumab within the past year, Week 12",14/15
same,patients who achieved ≧PASI 50 responses,"[1]; patients exposed to etanercept within the past year, Week 12",12/14
same,patients who achieved ≧PASI 50 responses,"[1]; patients exposed to infliximab within the past year, Week 12",4/4
same,"Withdrawals: Abnormal lab value, number of patients","[2]; Week 0-12, 40 mg eow (N = 45)",0
same,"Withdrawals: Adverse events, number of patients","[2]; Week 0-12, 40 mg eow (N = 45)",2
same,"Withdrawals: Lack of Efficacy, number of patients","[2]; Week 0-12, 40 mg eow (N = 45)",0
same,"Withdrawals: Abnormal lab value, number of patients",[2]; [8],1
same,"Withdrawals: Adverse events, number of patients",[2]; [8],2
same,"Withdrawals: Lack of Efficacy, number of patients",[2]; [8],0
same,"Withdrawals: Abnormal lab value, number of patients","[2]; Week 0-60, 40 mg eow (N = 45)",0
same,"Withdrawals: Adverse events, number of patients","[2]; Week 0-60, 40 mg eow (N = 45)",4
same,"Withdrawals: Lack of Efficacy, number of patients","[2]; Week 0-60, 40 mg eow (N = 45)",6
same,"Withdrawals: Abnormal lab value, number of patients",[2]; [9],1
same,"Withdrawals: Adverse events, number of patients",[2]; [9],8
same,"Withdrawals: Lack of Efficacy, number of patients",[2]; [9],4
same,"Withdrawals: Abnormal lab value, number of patients",[2]; [10],0
same,"Withdrawals: Adverse events, number of patients",[2]; [10],2
same,"Withdrawals: Lack of Efficacy, number of patients",[2]; [10],6
same,"Back pain, number of patients",[2]; [11],4 n
same,"Back pain, percent of patients",[2]; [11],(8.0) %
same,"Blood creatine phosphokinase increased, number of patients",[2]; [11],2 n
same,"Blood creatine phosphokinase increased, percent of patients",[2]; [11],(4.0) %
same,"Blood triglycerides increased, number of patients",[2]; [11],2 n
same,"Blood triglycerides increased, percent of patients",[2]; [11],(4.0) %
same,"Headache, number of patients",[2]; [11],6 n
same,"Headache, percent of patients",[2]; [11],(12.0) %
same,"Muscle strain, number of patients",[2]; [11],4 n
same,"Muscle strain, percent of patients",[2]; [11],(8.0) %
same,"Nasopharyngitis, number of patients",[2]; [11],6 n
same,"Nasopharyngitis, percent of patients",[2]; [11],(12.0) %
same,"Skin papilloma, number of patients",[2]; [11],5 n
same,"Skin papilloma, percent of patients",[2]; [11],(10.0) %
same,"Upper Respiratory Infection, Not otherwise specified, number of patients",[2]; [11],7 n
same,"Upper Respiratory Infection, Not otherwise specified, percent of patients",[2]; [11],(14.0) %
same,"Upper Respiratory Infection, Viral not otherwise specified, number of patients",[2]; [11],3 n
same,"Upper Respiratory Infection, Viral not otherwise specified, percent of patients",[2]; [11],(6.0) %
same,"Urticaria, number of patients",[2]; [11],3 n
same,"Urticaria, percent of patients",[2]; [11],(6.0) %
same,Back pain,[2]; [12],4 (4.3) n (%)
same,Blood creatine phosphokinase increased,[2]; [12],5 (5.4) n (%)
same,Blood triglycerides increased,[2]; [12],7 (7.6) n (%)
same,Headache,[2]; [12],3 (3.3) n (%)
same,Muscle strain,[2]; [12],1 (1.1) n (%)
same,Nasopharyngitis,[2]; [12],13 (14.1) n (%)
same,Skin papilloma,[2]; [12],3 (3.3) n (%)
same,"Upper Respiratory Infection, Viral not otherwise specified",[2]; [12],4 (4.3) n (%)
same,Urticaria,[2]; [12],0 (0.0) n (%)
same,Adverse Events Leading to Withdrawal,"[2]; Weeks 0-12, 40 mg eow (n = 45)",2 (4.4) n (%)
same,Any Adverse Event,"[2]; Weeks 0-12, 40 mg eow (n = 45)",28 (62.2) n (%)
same,Serious Adverse Events,"[2]; Weeks 0-12, 40 mg eow (n = 45)",1 (2.2 n (%)
same,Adverse Events Leading to Withdrawal,[2]; [13],3 (6.0) n (%)
same,Any Adverse Event,[2]; [13],39 (78.0) n (%)
same,Serious Adverse Events,[2]; [13],4 (8.0) n (%)
same,AE's→Withdrawal,[2]; [14],2 (22) n (%)
same,Any AE,[2]; [14],6 (67) n (%)
same,Serious AE,[2]; [14],2 (22) n (%)
same,Adverse Events Leading to Withdrawal,[2]; [15],5 (10.0) n (%)
same,Any Adverse Event,[2]; [15],39 (78.0) n (%)
same,Serious Adverse Events,[2]; [15],7 (14.0) n (%)
same,AE's→Withdrawal,[2]; [16],(8) %
same,"AE's→Withdrawal, number of patients",[2]; [16],2
same,Any AE,[2]; [16],(79) %
same,"Any AE, number of patients",[2]; [16],19
same,Serious AE,[2]; [16],(17) %
same,"Serious AE, number of patients",[2]; [16],4
same,AE's→Withdrawal,[2]; [17],(0) %
same,"AE's→Withdrawal, number of patients",[2]; [17],0
same,Any AE,[2]; [17],(86) %
same,"Any AE, number of patients",[2]; [17],6
same,Serious AE,[2]; [17],(0) %
same,"Serious AE, number of patients",[2]; [17],0
same,AE's→Withdrawal,[2]; [18],(14) %
same,"AE's→Withdrawal, number of patients",[2]; [18],3
